In the supplement of paper PMC12458215:
± gives the uncertainty stated by the source.

Tested on: HEK293T
Assay: plasma membrane surface immunostaining intensity (anti-HA, deep receptor scanning) (arbitrary fluorescence units); higher = higher plasma membrane expression

| Sequence | plasma membrane surface immunostaining intensity (GPCR class: A) | further results |
| --- | --- | --- |
| MTPNSTGEVPSPIPKGALGLSLALASLIITANLLLALGIAWDRRLRSPPAGCFFLSLLLAGLLTGLALPTLPGLWNQSRRGYWSCLLVYLAPNFSFLSLLANLLLVHGERYMAVLRPLQPPGSIRLALLLTWAGPLLFASLPALGWNHWTPGANCSSQAIFPAPYLYLEVYGLLLPAVGAAAFLSVRVLATAHRQLQDICRLERAVCRDEPSALARALTWRQARAQAGAMLLFGLCWGPYVATLLLSVLAYEQRPPLGPGTLLSLLSLGSASAAAVPVAMGLGDQRYTAPWRAAAQRCLQGLWGRASRDSPGPSIAYHPSSQSSVDLDLN [GPBAR1] | 5940 ± 84 | – |
| MTPTDFTSPIPNMADDYGSESTSSMEDYVNFNFTDFYCEKNNVRQFASHFLPPLYWLVFIVGALGNSLVILVYWYCTRVKTMTDMFLLNLAIADLLFLVTLPFWAIAAADQWKFQTFMCKVVNSMYKMNFYSCVLLIMCISVDRYIAIAQAMRAHTWREKRLLYSKMVCFTIWVLAAALCIPEILYSQIKEESGIAICTMVYPSDESTKLKSAVLTLKVILGFFLPFVVMACCYTIIIHTLIQAKKSSKHKALKVTITVLTVFVLSQFPYNCILLVQTIDAYAMFISNCAVSTNIDICFQVTQTIAFFHSCLNPVLYVFVGERFRRDLVKTLKNLGCISQAQWVSFTRREGSLKLSSMLLETTSGALSL [CCR9] | 4060 ± 290 | – |
| MTRKNYTSLTEFVLLGLADTLELQIILFLFFLVIYTLTVLGNLGMILLIRIDSQLHTPMYFFLANLSFVDVCNSTTITPKMLADLLSEKKTISFAGCFLQMYFFISLATTECILFGLMAYDRYAAICRPLLYSLIMSRTVYLKMAAGAFAAGLLNFMVNTSHVSSLSFCDSNVIHHFFCDSPPLFKLSCSDTILKESISSILAGVNIVGTLLVILSSYSYVLFSIFSMHSGEGRHRAFSTCASHLTAIILFYATCIYTYLRPSSSYSLNQDKVASVFYTVVIPMLNPLIYSLRSKEVKKALANVISRKRTSSFL [OR5F1] | – | plasma membrane surface immunostaining intensity (GPCR class: A (Olfactory)): 192 ± 87 |
| MTSGSVFFYILIFGKYFSHGGGQDVKCSLGYFPCGNITKCLPQLLHCNGVDDCGNQADEDNCGDNNGWSLQFDKYFASYYKMTSQYPFEAETPECLVGSVPVQCLCQGLELDCDETNLRAVPSVSSNVTAMSLQWNLIRKLPPDCFKNYHDLQKLYLQNNKITSISIYAFRGLNSLTKLYLSHNRITFLKPGVFEDLHRLEWLIIEDNHLSRISPPTFYGLNSLILLVLMNNVLTRLPDKPLCQHMPRLHWLDLEGNHIHNLRNLTFISCSNLTVLVMRKNKINHLNENTFAPLQKLDELDLGSNKIENLPPLIFKDLKELSQLNLSYNPIQKIQANQFDYLVKLKSLSLEGIEISNIQQRMFRPLMNLSHIYFKKFQYCGYAPHVRSCKPNTDGISSLENLLASIIQRVFVWVVSAVTCFGNIFVICMRPYIRSENKLYAMSIISLCCADCLMGIYLFVIGGFDLKFRGEYNKHAQLWMESTHCQLVGSLAILSTEVSVLLLTFLTLEKYICIVYPFRCVRPGKCRTITVLILIWITGFIVAFIPLSNKEFFKNYYGTNGVCFPLHSEDTESIGAQIYSVAIFLGINLAAFIIIVFSYGSMFYSVHQSAITATEIRNQVKKEMILAKRFFFIVFTDALCWIPIFVVKFLSLLQVEIPGTITSWVVIFILPINSALNPILYTLTTRPFKEMIHRFWYNYRQRKSMDSKGQKTYAPSFIWVEMWPLQEMPPELMKPDLFTYPCEMSLISQSTRLNSYS [RXFP1] | 165 ± 19 | – |
| MTSNFSQPVVQLCYEDVNGSCIETPYSPGSRVILYTAFSFGSLLAVFGNLLVMTSVLHFKQLHSPTNFLIASLACADFLVGVTVMLFSMVRTVESCWYFGAKFCTLHSCCDVAFCYSSVLHLCFICIDRYIVVTDPLVYATKFTVSVSGICISVSWILPLTYSGAVFYTGVNDDGLEELVSALNCVGGCQIIVSQGWVLIDFLLFFIPTLVMIILYSKIFLIAKQQAIKIETTSSKVESSSESYKIRVAKRERKAAKTLGVTVLAFVISWLPYTVDILIDAFMGFLTPAYIYEICCWSAYYNSAMNPLIYALFYPWFRKAIKLILSGDVLKASSSTISLFLE [TAAR8] | 352 ± 170 | – |
| MTSTCTNSTRESNSSHTCMPLSKMPISLAHGIIRSTVLVIFLAASFVGNIVLALVLQRKPQLLQVTNRFIFNLLVTDLLQISLVAPWVVATSVPLFWPLNSHFCTALVSLTHLFAFASVNTIVVVSVDRYLSIIHPLSYPSKMTQRRGYLLLYGTWIVAILQSTPPLYGWGQAAFDERNALCSMIWGASPSYTILSVVSFIVIPLIVMIACYSVVFCAARRQHALLYNVKRHSLEVRVKDCVENEDEEGAEKKEEFQDESEFRRQHEGEVKAKEGRMEAKDGSLKAKEGSTGTSESSVEARGSEEVRESSTVASDGSMEGKEGSTKVEENSMKADKGRTEVNQCSIDLGEDDMEFGEDDINFSEDDVEAVNIPESLPPSRRNSNSNPPLPRCYQCKAAKVIFIIIFSYVLSLGPYCFLAVLAVWVDVETQVPQWVITIIIWLFFLQCCIHPYVYGYMHKTIKKEIQDMLKKFFCKEKPPKEDSHPDLPGTEGGTEGKIVPSYDSATFP [GPR101] | 3010 ± 110 | – |
| MTTSLDTVETFGTTSYYDDVGLLCEKADTRALMAQFVPPLYSLVFTVGLLGNVVVVMILIKYRRLRIMTNIYLLNLAISDLLFLVTLPFWIHYVRGHNWVFGHGMCKLLSGFYHTGLYSEIFFIILLTIDRYLAIVHAVFALRARTVTFGVITSIVTWGLAVLAALPEFIFYETEELFEETLCSALYPEDTVYSWRHFHTLRMTIFCLVLPLLVMAICYTGIIKTLLRCPSKKKYKAIRLIFVIMAVFFIFWTPYNVAILLSSYQSILFGNDCERSKHLDLVMLVTEVIAYSHCCMNPVIYAFVGERFRKYLRHFFHRHLLMHLGRYIPFLPSEKLERTSSVSPSTAEPELSIVF [CCR3] | 391 ± 99 | – |
| MTTSPILQLLLRLSLCGLLLQRAETGSKGQTAGELYQRWERYRRECQETLAAAEPPSGLACNGSFDMYVCWDYAAPNATARASCPWYLPWHHHVAAGFVLRQCGSDGQWGLWRDHTQCENPEKNEAFLDQRLILERLQVMYTVGYSLSLATLLLALLILSLFRRLHCTRNYIHINLFTSFMLRAAAILSRDRLLPRPGPYLGDQALALWNQALAACRTAQIVTQYCVGANYTWLLVEGVYLHSLLVLVGGSEEGHFRYYLLLGWGAPALFVIPWVIVRYLYENTQCWERNEVKAIWWIIRTPILMTILINFLIFIRILGILLSKLRTRQMRCRDYRLRLARSTLTLVPLLGVHEVVFAPVTEEQARGALRFAKLGFEIFLSSFQGFLVSVLYCFINKEVQSEIRRGWHHCRLRRSLGEEQRQLPERAFRALPSGSGPGEVPTSRGLSSGTLPGPGNEASRELESYC [GIPR] | – | plasma membrane surface immunostaining intensity (GPCR class: B): 6435 ± 30 |
| MVFLSGNASDSSNCTQPPAPVNISKAILLGVILGGLILFGVLGNILVILSVACHRHLHSVTHYYIVNLAVADLLLTSTVLPFSAIFEVLGYWAFGRVFCNIWAAVDVLCCTASIMGLCIISIDRYIGVSYPLRYPTIVTQRRGLMALLCVWALSLVISIGPLFGWRQPAPEDETICQINEEPGYVLFSALGSFYLPLAIILVMYCRVYVVAKRESRGLKSGLKTDKSDSEQVTLRIHRKNAPAGGSGMASAKTKTHFSVRLLKFSREKKAAKTLGIVVGCFVLCWLPFFLVMPIGSFFPDFKPSETVFKIVFWLGYLNSCINPIIYPCSSQEFKKAFQNVLRIQCLCRKQSSKHALGYTLHPPSQAVEGQHKDMVRIPVGSRETFYRISKTDGVCEWKFFSSMPRGSARITVSKDQSSCTTARVRSKSFLQVCCCVGPSTPSLDKNHQVPTIKVHTISLSENGEEV [ADRA1A] | 2110 ± 600 | – |
| MVGDTLKLLSPLMTRYFFLLFYSTDSSDLNENQHPLDFDEMAFGKVKSGISFLIQTGVGILGNSFLLCFYNLILFTGHKLRPTDLILSQLALANSMVLFFKGIPQTMAAFGLKYLLNDTGCKFVFYYHRVGTRVSLSTICLLNGFQAIKLNPSICRWMEIKIRSPRFIDFCCLLCWAPHVLMNASVLLLVNGPLNSKNSSAKNNYGYCSYKASKRFSSLHAVLYFSPDFMSLGFMVWASGSMVFFLYRHKQQVQHNHSNRLSCRPSQEARATHTIMVLVSSFFVFYSVHSFLTIWTTVVANPGQWIVTNSVLVASCFPARSPFVLIMSDTHISQFCFACRTRKTLFPNLVVMP [VN1R1] | – | plasma membrane surface immunostaining intensity (GPCR class: Vomeronasal): 140 ± 8.3 |
| MVLASGNSSSHPVSFILLGIPGLESFQLWIAFPFCATYAVAVVGNITLLHVIRIDHTLHEPMYLFLAMLAITDLVLSSSTQPKMLAIFWFHAHEIQYHACLIQVFFIHAFSSVESGVLMAMALDCYVAICFPLRHSSILTPSVVIKLGTIVMLRGLLWVSPFCFMVSRMPFCQHQAIPQSYCEHMAVLKLVCADTSISRGNGLFVAFSVAGFDMIVIGMSYVMILRAVLQLPSGEARLKAFSTRSSHICVILALYIPALFSFLTYRFGHDVPRVVHILFANLYLLIPPMLNPIIYGVRTKQIGDRVIQGCCGNIP [OR52R1] | – | plasma membrane surface immunostaining intensity (GPCR class: A (Olfactory)): 173 ± 48 |
| MVLEVSDHQVLNDAEVAALLENFSSSYDYGENESDSCCTSPPCPQDFSLNFDRAFLPALYSLLFLLGLLGNGAVAAVLLSRRTALSSTDTFLLHLAVADTLLVLTLPLWAVDAAVQWVFGSGLCKVAGALFNINFYAGALLLACISFDRYLNIVHATQLYRRGPPARVTLTCLAVWGLCLLFALPDFIFLSAHHDERLNATHCQYNFPQVGRTALRVLQLVAGFLLPLLVMAYCYAHILAVLLVSRGQRRLRAMRLVVVVVVAFALCWTPYHLVVLVDILMDLGALARNCGRESRVDVAKSVTSGLGYMHCCLNPLLYAFVGVKFRERMWMLLLRLGCPNQRGLQRQPSSSRRDSSWSETSEASYSGL [CXCR3] | 530 ± 49 | – |
| MVLNVYCCFFQISDIQTMKINQTILKEFILVGFSVYPHVQTFLFVVFFCLYLLTLAGNLIIMGLTWVDRSLHTPMYLFLSALSFSETCYTLTIVPKMLEDLLAKDRSISVTGCSLQMCFFLGLGGTNCIILTLMGYDRFLAICNPLRYPLLMTNIVCGQLVASACTAGFFISLTETALIFRDSFCRPNLVKHFFCHMLAVIRLSCIDSNHTEFIITLISVSGLLGTLLLIILTDVFIISTVLRIPSAEGKQKAFTTCASHLTVVIIHFGFASIVYLKPEASGDDTLIAVPYTVITPFLSPIIFSLRNKDMKNAFRRMMGNTVALKK [OR10X1] | – | plasma membrane surface immunostaining intensity (GPCR class: A (Olfactory)): 233 ± 96 |
| MVNLRNAVHSFLVHLIGLLVWQSDISVSPVAAIVTDIFNTSDGGRFKFPDGVQNWPALSIVIIIIMTIGGNILVIMAVSMEKKLHNATNYFLMSLAIADMLVGLLVMPLSLLAILYDYVWPLPRYLCPVWISLDVLFSTASIMHLCAISLDRYVAIRNPIEHSRFNSRTKAIMKIAIVWAISIGVSVPIPVIGLRDEEKVFVNNTTCVLNDPNFVLIGSFVAFFIPLTIMVITYCLTIYVLRRQALMLLHGHTEEPPGLSLDFLKCCKRNTAEEENSANPNQDQNARRRKKKERRPRGTMQAINNERKASKVLGIVFFVFLIMWCPFFITNILSVLCEKSCNQKLMEKLLNVFVWIGYVCSGINPLVYTLFNKIYRRAFSNYLRCNYKVEKKPPVRQIPRVAATALSGRELNVNIYRHTNEPVIEKASDNEPGIEMQVENLELPVNPSSVVSERISSV [HTR2C] | 974 ± 180 | – |
| MVNNFSQAEAVELCYKNVNESCIKTPYSPGPRSILYAVLGFGAVLAAFGNLLVMIAILHFKQLHTPTNFLIASLACADFLVGVTVMPFSTVRSVESCWYFGDSYCKFHTCFDTSFCFASLFHLCCISVDRYIAVTDPLTYPTKFTVSVSGICIVLSWFFSVTYSFSIFYTGANEEGIEELVVALTCVGGCQAPLNQNWVLLCFLLFFIPNVAMVFIYSKIFLVAKHQARKIESTASQAQSSSESYKERVAKRERKAAKTLGIAMAAFLVSWLPYLVDAVIDAYMNFITPPYVYEILVWCVYYNSAMNPLIYAFFYQWFGKAIKLIVSGKVLRTDSSTTNLFSEEVETD [TAAR9] | 136 ± 34 | – |
